One series can be described thus: in vivo. More on the design: species or system mice. As to conditions: male, athymic nude (outbred) CrTac:NCr-Foxn1nu, mouse, iv, 11.1 MBq, total radioactivity, Activity concentration.
In another series the test system is PC-3 tumor–bearing mice. As to conditions: mouse, in vivo.

For the compound `CC(C)C[C@H](NC(=O)C[C@H](O)[C@H](CC(C)C)NC(=O)[C@H](Cc1c[nH]cn1)NC(=O)CNC(=O)[C@@H](NC(=O)[C@H](C)NC(=O)[C@H](Cc1c[nH]c2ccccc12)NC(=O)[C@H](CCC(N)=O)NC(=O)[C@@H](Cc1ccccc1)NC(=O)CCOCCOCCOCCOCCNC(=O)CN1CCN(CC(=O)O)CCN(CC(=O)O)CCN(CC(=O)O)CC1)C(C)C)C(N)=O` [^90Y-DOTA-AR, metal not drawn], in the series “in vivo” (PC-3 tumor), the tissue uptake at 1 h came to 3.62 ± 0.95 %ID/g, the tissue uptake at 4 h was 2.92 ± 0.57 %ID/g, the tissue uptake at 24 h worked out at 0.45 ± 0.04 %ID/g and the tissue uptake at 48 h was 0.1 ± 0.05 %ID/g. Moreover, in the series “in vivo” (kidney), the tissue uptake at 1 h came to 1.76 ± 0.61 %ID/g, the tissue uptake at 4 h worked out at 0.78 ± 0.14 %ID/g, the tissue uptake at 24 h amounted to 0.17 ± 0.02 %ID/g and the tissue uptake at 48 h was 0.07 ± 0.01 %ID/g. Further, in “in vivo” (liver), the tissue uptake at 1 h is 0.21 ± 0.05 %ID/g, the tissue uptake at 4 h is 0.12 ± 0.06 %ID/g, the tissue uptake at 24 h is 0.04 ± 0.01 %ID/g and the tissue uptake at 48 h was 0.02 %ID/g. In addition, in the series on PC-3 tumor–bearing mice, the “Radiation dose to kidney” value is given as 0.06 ± 0.01 Gy/MBq and the “Radiation dose to kidney, range” value is reported as 0.05–0.08 Gy/MBq.

The record behind these values is article PMC4470706 (Journal of nuclear medicine : official publication, Society …, 2015).
